From the supplement of paper PMC5998384 come the findings set out here.

For series [1], the system named is HeLa Kyoto. The experiment in a line: melting temperature (median over replicates), in situ; higher = more thermally stable.
The test system of series [2] is HeLa Kyoto. The experiment in a line: thermal stability score vs G1/S (z-score of summed log2 fold changes over temperatures); higher = more thermally stable than in G1/S.
Series [3] has as its system HeLa Kyoto. The experiment in a line: solubility in G1/S (NP-40 vs SDS abundance) (log2 ratio); higher = more soluble. To be noted: cell cycle stage: G1/S.
Series [4] concerns HeLa Kyoto. The experiment in a line: solubility change mitosis vs G1/S (difference of NP-40 vs SDS log2 ratios) (log2 ratio difference); higher = more soluble in mitosis.
Setting [5] is: cell cycle stage: early G1 (4.5 h after nocodazole release).
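For melting temperature (median over replicates), in situ in this document: HeLa Kyoto cells synchronized by double thymidine or nocodazole block, proteins quantified by TMT10plex mass spectrometry, three independent biological replicates.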
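For solubility change mitosis vs G1/S (difference of NP-40 vs SDS log2 ratios) in this document: synchronized HeLa Kyoto cells (double thymidine block for G1/S, nocodazole release for mitosis), protein amounts in NP-40 versus SDS lysates quantified by mass spectrometry, three biological replicates.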
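For solubility in G1/S (NP-40 vs SDS abundance) in this document: HeLa Kyoto cells arrested at G1/S by double thymidine block, proteins quantified by TMT10plex mass spectrometry in mild NP-40 versus SDS extracts, three biological replicates.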
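For thermal stability score vs G1/S (z-score of summed log2 fold changes over temperatures) in this document: synchronized HeLa Kyoto cells, proteins quantified by TMT10plex mass spectrometry, three biological replicates, mitosis taken 0.5 h after nocodazole release, G1/S directly after double thymidine block.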

With “MSYIPGQPVTAVVQRVEIHKLRQGENLILGFSIGGGIDQDPSQNPFSEDKTDKGIYVTRVSEGGPAEIAGLQIGDKIMQVNGWDMTMVTHDQARKRLTKRSEEVVRLLVTRQSLQKAVQQSMLS [TAX1BP3]”, the melting temperature is 49.1 °C in series [1] (cell cycle stage: G1/S) and 49.2 °C in series [1] (cell cycle stage: mitosis). Besides, the thermal stability score in series [2] (setting [5]) turned out to be 1.74; in series [2] (cell cycle stage: mitosis), 1.25. In addition, the “solubility in G1/S (log2)” value in series [3] was found to be 0.277. The “solubility change mitosis (log2)” value in series [4] amounted to 0.0294.

As to “MAKKTYDLLFKLLLIGDSGVGKTCVLFRFSDDAFNTTFISTIGIDFKIKTVELQGKKIKLQIWDTAGQERFHTITTSYYRGAMGIMLVYDITNGKSFENISKWLRNIDEHANEDVERMLLGNKCDMDDKRVVPKGKGEQIAREHGIRFFETSAKANINIEKAFLTLAEDILRKTPVKEPNSENVDISSGGGVTGWKSKCC [RAB10]”, the melting temperature in series [1] (cell cycle stage: G1/S) amounted to 57.5 °C; in series [1] (cell cycle stage: mitosis), 56.5 °C. Also, the thermal stability score in series [2] (setting [5]) was -0.265; in series [2] (cell cycle stage: mitosis) it was -1.23. Further, the “solubility in G1/S (log2)” value in series [3] is -0.153. In addition, in series [4], the “solubility change mitosis (log2)” value was -0.146.

As for “MMKFRFRRQGADPQREKLKQELFAFNKTVEHGFPNQPSALAFDPELRIMAIGTRSGAVKIYGAPGVEFTGLHRDAATVTQMHFLTGQGRLLSLLDDSSLHLWEIVHHNGCAHLEEALSFQLPSRPGFDGASAPLSLTRVTVVLLVAASDIAALGTEGSSVFFLDVTTLTLLEGQTLAPGEVLRSVPDDYRCGKALGPVESLQGHLRDPTKILIGYSRGLLVIWNQASQCVDHIFLGNQQLESLCWGRDSSTVVSSHSDGSYAVWSVDAGSFPTLQPTVATTPYGPFPCKAINKILWRNCESGGHFIIFSGGMPRASYGDRHCVSVLRAETLVTLDFTSRIIDFFTVHSTRPEDEFDDPQALAVLLEEELVVLDLQTPGWPAVPAPYLAPLHSSAITCSAHVASVPAKLWARIVSAGEQQSPQPVSSALSWPITGGRNLAQEPSQRGLLLTGHEDGTVRFWDASGVALRPLYKLSTAGLFQTDCEHADSLAQAAEDDWPPFRKVGCFDPYSDDPRLGVQKVALCKYTAQMVVAGTAGQVLVLELSDVPVEQAVSVAIIDLLQDREGFTWKGHERLSPRTGPLPWPAGFQPRVLVQCLPPAAVTAVTLHTEWSLVAFGTSHGFGLFDYQRKSPVLARCTLHPNDSLAMEGPLSRVKSLKKSLRQSFRRIRKSRVSGKKRAANASSKLQEANAQLAEQACPHDVEMTPVQRRIEPRSADDSLSGVVRCLYFADTFLRDGAHHGPTMWAGTNSGSVFAYALEVPAAAVGGEKRPEQAVEAVLGKEVQLMHRAPVVAIAVLDGRGRPLPEPYEASRDLAQAPDMQGGHAVLIASEEQFKVFTLPKVSAKTKFKLTAHEGCRVRKVALATFASVACEDYAETCLACLTNLGDVHVFSVPGLRPQVHYSCIRKEDISGIASCVFTRHGQGFYLISPSEFERFSLSARNITEPLCSLDINWPRDATQASYRIRESPKLSQANGTPSILLAPQSLDGSPDPAHSMGPDTPEPPEAALSPMSIDSATSADTTLDTTGDVTVEDVKDFLGSSEESEKNLRNLAEDEAHACAILIK [LLGL1]”, the melting temperature in series [1] (cell cycle stage: G1/S) amounted to 50.9 °C; in series [1] (cell cycle stage: mitosis), 49.7 °C. For the same sequence, the thermal stability score in series [2] (setting [5]) is -0.436; in series [2] (cell cycle stage: mitosis) it was -0.753. The “solubility in G1/S (log2)” value in series [3] was determined as 0.0124. Also, the “solubility change mitosis (log2)” value in series [4] is -0.209.

With “MIWYILIIGILLPQSLAHPGFFTSIGQMTDLIHTEKDLVTSLKDYIKAEEDKLEQIKKWAEKLDRLTSTATKDPEGFVGHPVNAFKLMKRLNTEWSELENLVLKDMSDGFISNLTIQRQYFPNDEDQVGAAKALLRLQDTYNLDTDTISKGNLPGVKHKSFLTAEDCFELGKVAYTEADYYHTELWMEQALRQLDEGEISTIDKVSVLDYLSYAVYQQGDLDKALLLTKKLLELDPEHQRANGNLKYFEYIMAKEKDVNKSASDDQSDQKTTPKKKGVAVDYLPERQKYEMLCRGEGIKMTPRRQKKLFCRYHDGNRNPKFILAPAKQEDEWDKPRIIRFHDIISDAEIEIVKDLAKPRLRRATISNPITGDLETVHYRISKSAWLSGYENPVVSRINMRIQDLTGLDVSTAEELQVANYGVGGQYEPHFDFARKDEPDAFKELGTGNRIATWLFYMSDVSAGGATVFPEVGASVWPKKGTAVFWYNLFASGEGDYSTRHAACPVLVGNKWVSNKWLHERGQEFRRPCTLSELE [P4HA1]”, the melting temperature was 55.3 °C in series [1] (cell cycle stage: G1/S) and 54.1 °C in series [1] (cell cycle stage: mitosis). Further, the thermal stability score in series [2] (setting [5]) came out at 3.59; in series [2] (cell cycle stage: mitosis), 6.2. In series [3], the “solubility in G1/S (log2)” value came to 0.216. Also, in series [4], the “solubility change mitosis (log2)” value is -0.0564.

Regarding “MGNSALRAHVETAQKTGVFQLKDRGLTEFPADLQKLTSNLRTIDLSNNKIESLPPLLIGKFTLLKSLSLNNNKLTVLPDEICNLKKLETLSLNNNHLRELPSTFGQLSALKTLSLSGNQLGALPPQLCSLRHLDVMDLSKNQIRSIPDSVGELQVIELNLNQNQISQISVKISCCPRLKILRLEENCLELSMLPQSILSDSQICLLAVEGNLFEIKKLRELEGYDKYMERFTATKKKFA [LRRC57]”, the melting temperature worked out at 53.2 °C in series [1] (cell cycle stage: G1/S) and 53.6 °C in series [1] (cell cycle stage: mitosis). Moreover, the thermal stability score in series [2] (setting [5]) was -0.373; in series [2] (cell cycle stage: mitosis), -0.56. The “solubility in G1/S (log2)” value in series [3] was 0.266. In addition, the “solubility change mitosis (log2)” value in series [4] is 0.00239.
